Results reported in patent US7271245B2, “Methods and compositions for inhibition of metastasis” (The Scripps Research Institute, priority 2004, dated 2007).
Numbering of substitutions follows the chain as printed.

B1: Bc-12: patient derived human scFv antibody against activated αvβ3 with RGD motif in CDR-H3; cDNA ATCC PTA-6303 (protein)
scFv: MAQVQLVQSGAEVKKPGASVKVSCKASGYTFSNYGITWVRQAPGQGLEWMGWINNGNTHYAQKFQGRVTMTTDTSTSTAYMELRSLRSDDTAVYYCARDPRGDDEPYWGQGTLVTVSSGGGGSGGGGSGGGGSEIVLTQSPLSLPVTLGQPASISCRSSQNLVYSDGNTYLSWFQQRPGQSPRRLIYKVSNRDSGVPDRFSGSGSGTDFTLKISRVEAEDIGVYYCMQGTHWPPRTFGQGTKVEIKRGLGGLVDYKDDDDK
B2: Mut-12: RGE containing mutant version of scFv Bc-12 (protein)
chain: B1 scFv with D103E

Legend:
[1] = test system: BMS human breast cancer cells; assay: Haptotactic tumor cell migration toward fibrinogen (transwell); assay type: cell-based; details: 2 μM scFv, 16 hrs at 37° C.
Protocol: (§1) FIGS. 3A, 3B, 3C, 3D, 3E. scFv Bc-12 and Bc-15 inhibit αvβ3 mediated adhesive breast cancer cell functions. (A) Adhesion of BMS human breast cancer cells to fibrinogen (Fg), vitronectin (VN) or type I collagen (Col I) in the absence or presence of 3 μM Bc-12, Bc-15 or their RGE mutants Mut-12, Mut-15, compared to 200 μM GRGDSPK peptide (SEQ ID NO: 11). Protein coating concentrations: 10 μg/ml (VN, Col I) or 20 μg/ml (Fg). Adhesion time: 30 min at 37° C. (B) Effect of scFvs on haptotactic BMS cell migration toward a fibrinogen substrate (16 hrs at 37° C. in transwell chambers with or without 2 μM Bc-12, Bc-15 or their RGE mutants Mut-12 or Mut-15, compared to 200 μM GRGDSPK peptide) (SEQ ID NO: 11). (C) Effect of scFvs on breast cancer cell arrest during blood flow. Metastatic BMS cells, labeled with hydroethidine, were suspended in human blood (anticoagulated with 50 nM PPACK) and perfused over a collagen I matrix at a venous wall shear rate of 50 s^−1. Under these conditions, breast cancer cells arrest by αvβ3 mediated binding to adherent, thrombus forming platelets. Tumor cell adhesion was quantified by image acquisition at 30 predefined positions during blood flow. Left: representative images of platelet signal (thrombi, green fluorescence) and tumor cell signal (red fluorescence) at identical x,y positions. Right: Number of arrested tumor cells in the presence of 3 μM non-function blocking anti αv scFv Bc-20 or function blocking anti αvβ3 scFvs Bc-12 or Bc-15. (D) scFv Bc-15 is internalized by human breast cancer cells and reduces cell proliferation. Left: confocal images of BMS cells incubated for 4 hrs with FITC-Bc-15 at 4° C. (binding) versus 37° C. (allowing internalization). Right: Phase contrast images of BMS cell cultures 4 days after seeding in the presence of 2 μM RGE containing scFv Mut-15, or RGD containing Bc-15. […]
Cell adhesion and migration. Tumor cell adhesion under stationary conditions was analyzed as detailed earlier (19). […] Haptotactic tumor cell migration toward fibrinogen was analyzed in transwell chambers as detailed earlier. […]

BMS breast cancer cells = assay: Tumor cell arrest during blood flow; assay type: cell-based; details: 3 μM scFv, human blood, collagen I matrix, shear rate 50 s^−1
Protocol: as §1, with “positions.” for “positions. Right: Number of arrested tumor cells in the presence of 3 μM non-function blocking anti αv scFv Bc-20 or function blocking anti αvβ3 scFvs Bc-12 or Bc-15. (D) scFv Bc-15 is internalized by human breast cancer cells and reduces cell proliferation. Left: confocal images of BMS cells incubated for 4 hrs with FITC-Bc-15 at 4° C. (binding) versus 37° C. (allowing internalization). Right: Phase contrast images of BMS cell cultures 4 days after seeding in the presence of 2 μM RGE containing scFv Mut-15, or RGD containing Bc-15.”
Tumor cell arrest during bloodflow. Breast cancer cell arrest during blood flow and interaction with platelets was measured as described. […] Adhesive events and cell interactions were visualized and recorded by fluorescence video microscopy and quantified by image acquisition at 30 predefined positions followed by computerized image analysis (MetaMorph, Universal Imaging). Tumor cells were stained with hydroethidine (red fluorescence) (20 μg/ml, 30 min, 37° C.), washed, and mixed with blood containing 10 μM mepacrine (green fluorescence). Blood cells, tumor cells, and platelets acquired green fluorescence and were visualized at 488/515 nm (excitation/emission). Tumor cells were identified by their unique red fluorescence at 543/590 nm. […]

[2] = test system: Integrin αIIβ3 mediated adhesive platelet functions; assay: Platelet adhesion and thrombus formation during blood perfusion; assay type: cell-based, human; details: 3 μM scFv
Protocol: Tumor cell arrest during bloodflow. Breast cancer cell arrest during blood flow and interaction with platelets was measured as described. Felding-Habermann, et al., Proc. Natl. Acad. Sci. U.S.A 98: 1853-1858, 2001. Felding-Habermann et al., J. Biol. Chem. 271: 5892-5900, 1996. Briefly, tumor cells were suspended in human blood anticoagulated with 50 nM PPACK and perfused over a collagen I matrix at a venous wall shear rate of 50 s^−1, 2 dynes/cm^2. Adhesive events and cell interactions were visualized and recorded by fluorescence video microscopy and quantified by image acquisition at 30 predefined positions followed by computerized image analysis (MetaMorph, Universal Imaging). Tumor cells were stained with hydroethidine (red fluorescence) (20 μg/ml, 30 min, 37° C.), washed, and mixed with blood containing 10 μM mepacrine (green fluorescence). Blood cells, tumor cells, and platelets acquired green fluorescence and were visualized at 488/515 nm (excitation/emission). Tumor cells were identified by their unique red fluorescence at 543/590 nm. To test inhibition, tumor cells were incubated with 3 μM scFv for 5 min at 37° C., then mixed into blood, scFv added to 3 μM final concentration and perfused immediately.
In the circulation, metastatic tumor cells are intensely exposed to a cancer patient's immune surveillance, encountering potential function blocking antibodies like Bc-12 and Bc-15. […]

[3] = test system: matrix deprived BMS breast cancer cells; assay: Apoptosis of matrix deprived breast cancer cells; assay type: cell-based, human; details: 3.7 μM scFv, ultra-low-adhesion plates, 20 hrs
Protocol: as §1, with “positions.” for “positions. Right: Number of arrested tumor cells in the presence of 3 μM non-function blocking anti αv scFv Bc-20 or function blocking anti αvβ3 scFvs Bc-12 or Bc-15. (D) scFv Bc-15 is internalized by human breast cancer cells and reduces cell proliferation. Left: confocal images of BMS cells incubated for 4 hrs with FITC-Bc-15 at 4° C. (binding) versus 37° C. (allowing internalization). Right: Phase contrast images of BMS cell cultures 4 days after seeding in the presence of 2 μM RGE containing scFv Mut-15, or RGD containing Bc-15.”

Molecule	fibrinogen directed migration [1]	breast cancer cell arrest during blood flow (BMS breast cancer cells)	adhesive platelet functions [2]	viability of matrix deprived cells (apoptosis) [3]
B1	inhibited BMS human breast cancer cell migration almost completely	efficiently inhibited	not affected	resulted in apoptotic cell death
B2	only a minor effect	no effect	–	–
